± gives the uncertainty stated by the source.

The series can be described thus: self-splicing fitness, log relative to wild type (ln ratio); higher = more splicing; Tetrahymena group I intron in knt gene, E. coli kanamycin selection, DiMSum; sequences stand for … in CUCUCU…GGAGGGAAAAGUUAUCAGGCAUGCACCUGGUAGCUAGUCUUUAAACCAAUAGAUUGCAUCGGUUUAAAAGGCAAGACCGUCAAAUUGCGGGAAAGGGGUCAACAGCCGUUCAGUACCAAGUCUCAGGGGAAACUUUGAGAUGGCCUUGCAAAGGGUAUGGUAAUAAGCUGACGGACAUGGUCCUAACCACGCAGCCAAGUCCUAAGUCAACAGAUCUUCUGUUGAUAUGGAUGCAGUUCACAGACUAAAUGUCGGUCGGGGAAGAUGUAUUCUUCUCAUAAGAUAUAGUCGGACCUCUCCUUAAUGGGAGCUAGCGGAUGAAGUGAUGCAACACUGGAGCCGCUGGGAACUAAUUUGUAUGCGAAAGUAUAUUGAUUAGUUUUGGAGUACUCGUGGUCG
In short, it runs like this: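 DiMSum derived fitness as the error-weighted combination of fold changes across replicates, kanamycin versus no kanamycin, normalised to wild type. E. coli BL21(DE3) held the library, which randomised all eight P1ex-region intron nucleotides within the knt kanamycin-resistance gene on pET-22b(+). Six replicate transformations grew overnight at 37°C or 30°C on LB agar with or without 25 μg/mL kanamycin, also containing 100 μg/mL carbenicillin, 50 μM IPTG and 0.2% rhamnose, and pooled colonies were amplicon-sequenced on an Illumina HiSeq 2500.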

As for AUUUAGCAAUAUUACGUUAC, the “self-splicing fitness (ln)” value was -2.76 ± 0.33 (30 °C) and -2 ± 0.27 (37 °C). For UCUCAGCAAUAUUACGUCGC the same measures were -2.22 ± 0.23 and -2.47 ± 0.33. For the sequence UUGAAGCAAUAUUACGAAGC, the “self-splicing fitness (ln)” value is -3.4 ± 0.3 (30 °C) and -2.48 ± 0.49 (37 °C). ACCAAGCAAUAUUACGUCUC: the “self-splicing fitness (ln)” value (30 °C) is -2.73 ± 0.094 and the “self-splicing fitness (ln)” value (37 °C) was -2.28 ± 0.12. The matching figures for GCGAAGCAAUAUUACGCGUU: -2.54 ± 0.15 and -2.77 ± 0.27. As for AGCAAGCAAUAUUACGUCUG, the “self-splicing fitness (ln)” value was -2.22 ± 0.09 (30 °C) and -1.15 ± 0.095 (37 °C). AGAUAGCAAUAUUACGGCAC: the “self-splicing fitness (ln)” value was -1.52 ± 0.16 (30 °C) and -0.639 ± 0.23 (37 °C). The matching figures for AAUUAGCAAUAUUACGAGUG: -1.08 ± 0.081 and -0.525 ± 0.11. In the case of UGGUAGCAAUAUUACGAGUC, the “self-splicing fitness (ln)” value (37 °C) was -2.29 ± 0.32.

Take GCGAAGCAAUAUUACGAUAU: the “self-splicing fitness (ln)” value (30 °C) was -2.52 ± 0.13 and the “self-splicing fitness (ln)” value (37 °C) is -1.22 ± 0.12. On to UGCUAGCAAUAUUACGCUUU, for which the “self-splicing fitness (ln)” value is, setting by setting: (30 °C) -2.16 ± 0.14; (37 °C) -2.22 ± 0.19. The matching figures for UGAAAGCAAUAUUACGCGAC: -2.33 ± 0.42 and -2.08 ± 0.38. As to CCUAAGCAAUAUUACGCGUC, the “self-splicing fitness (ln)” value was -3.25 ± 0.16 (30 °C) and -1.95 ± 0.17 (37 °C). Turning to UAGAAGCAAUAUUACGGACA, the “self-splicing fitness (ln)” value was -0.547 ± 0.11 (30 °C) and -0.0716 ± 0.13 (37 °C). Turning to UCGGAGCAAUAUUACGGCGU, the “self-splicing fitness (ln)” value was -1.82 ± 0.22 (30 °C) and -0.847 ± 0.16 (37 °C). ACUAAGCAAUAUUACGGCCC: the “self-splicing fitness (ln)” value (30 °C) was -0.668 ± 0.18 and the “self-splicing fitness (ln)” value (37 °C) is -0.484 ± 0.27. Turning to AAAUAGCAAUAUUACGUCUG, the “self-splicing fitness (ln)” value is, setting by setting: (30 °C) -1.3 ± 0.068; (37 °C) -0.843 ± 0.088.

Consider CGAGAGCAAUAUUACGGUUA, for which the “self-splicing fitness (ln)” value (30 °C) was -3.13 ± 0.43 and the “self-splicing fitness (ln)” value (37 °C) is -2.79 ± 0.49.

For UGAGAGCAAUAUUACGAGUC, the “self-splicing fitness (ln)” value (37 °C) was -3.22 ± 0.47.

Consider UACCAGCAAUAUUACGCUUG, for which the “self-splicing fitness (ln)” value is, setting by setting: (30 °C) -1.01 ± 0.073; (37 °C) -0.79 ± 0.095. The matching figures for AGUUAGCAAUAUUACGUAGU: -2.77 ± 0.17 and -1.94 ± 0.17.

As to CCACAGCAAUAUUACGGGAG, the “self-splicing fitness (ln)” value is -2.29 ± 0.14 (30 °C) and -2.97 ± 0.19 (37 °C). As to CAAUAGCAAUAUUACGCCUC, the “self-splicing fitness (ln)” value by setting is: (30 °C) -3.74 ± 0.48; (37 °C) -2.17 ± 0.36.

Turning to CGUAAGCAAUAUUACGAGUC, the “self-splicing fitness (ln)” value is -2.82 ± 0.4 (30 °C) and -1.92 ± 0.34 (37 °C). GAGGAGCAAUAUUACGUAUA: the “self-splicing fitness (ln)” value (37 °C) is -2.74 ± 0.4. Take UUGUAGCAAUAUUACGAUAC: for the setting “30 °C”, the “self-splicing fitness (ln)” value was -1.91 ± 0.22. For CAGGAGCAAUAUUACGAAUU, the “self-splicing fitness (ln)” value was -3.43 ± 0.35 (30 °C) and -2.43 ± 0.3 (37 °C). Regarding AGUUAGCAAUAUUACGGUAG, the “self-splicing fitness (ln)” value (30 °C) is -3.77 ± 0.3 and the “self-splicing fitness (ln)” value (37 °C) is -2.11 ± 0.34.

As for CGUAAGCAAUAUUACGGCCC, under “37 °C”, the “self-splicing fitness (ln)” value is -1.43 ± 0.3. Consider GAUCAGCAAUAUUACGCGAU, for which the “self-splicing fitness (ln)” value was -3.92 ± 0.21 (30 °C) and -2.6 ± 0.2 (37 °C). Take UUGGAGCAAUAUUACGUUAG: the “self-splicing fitness (ln)” value runs as follows: (30 °C) -3.62 ± 0.2; (37 °C) -1.49 ± 0.22. The matching figures for CCAAAGCAAUAUUACGAAAG: -1.14 ± 0.088 and -0.678 ± 0.11. Turning to UACUAGCAAUAUUACGAGGC, the “self-splicing fitness (ln)” value runs as follows: (30 °C) -3.01 ± 0.17; (37 °C) -2.27 ± 0.23.

For the sequence AACAAGCAAUAUUACGGGGC, the “self-splicing fitness (ln)” value (37 °C) is -2.18 ± 0.23.

As for GGGGAGCAAUAUUACGCUUU, the “self-splicing fitness (ln)” value (30 °C) is -2.18 ± 0.27.

CCUUAGCAAUAUUACGAGUA: the “self-splicing fitness (ln)” value runs as follows: (30 °C) -2.81 ± 0.29; (37 °C) -2.42 ± 0.26.

As to CUCCAGCAAUAUUACGACCG, the “self-splicing fitness (ln)” value was -0.451 ± 0.12 (30 °C) and -1.15 ± 0.2 (37 °C). For ACUAAGCAAUAUUACGUACG the same measures were -1.76 ± 0.12 and -0.814 ± 0.16.

In the case of ACACAGCAAUAUUACGGAGC, the “self-splicing fitness (ln)” value is -2.36 ± 0.13 (30 °C) and -1.52 ± 0.12 (37 °C).

As for UAUCAGCAAUAUUACGCUUA, the “self-splicing fitness (ln)” value is, setting by setting: (30 °C) -0.532 ± 0.13; (37 °C) 0.504 ± 0.13.

The record behind these values is the supplement of paper PMC7877785.
